Test results reported in patent publication US20050164339.

Assays:
[1] = biological target: T1, His6-LctA modified by LctM
T1 chain: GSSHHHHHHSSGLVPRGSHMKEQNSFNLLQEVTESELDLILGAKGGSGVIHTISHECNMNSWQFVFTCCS

His6-LctA = biological target: T2, His6-LctA
T2 chain: T1 chain

LctMutA = biological target: T3, LctMutA
T3 chain: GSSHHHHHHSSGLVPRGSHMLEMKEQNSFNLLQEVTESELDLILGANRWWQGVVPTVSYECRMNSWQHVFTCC

B1: Endoproteinase Lys-C from Lysobacter enzymogenes (protein)
chain: GVSGSCNIDVVCPEGNGHRDVIRSVAAYSKQGTMWCTGSLVNNSANDKKMYFLTANHCGMTTAAIASSMVVYWNYQNSTCRAPGSSSSGANGDGSLAQSQTGAVVRATNAASDFTLLELNTAANPAYNLFWAGWDRRDQNFAGATAIHHPNVAEKRISHSTVATEISGYNGATGTSHLHVFWQASGGVTEPGSSGSPIYSPEKRVLGQLHGGPSSCSATGADRSDYYGRVFTSWTGGGTSATRLSDWLDAAGTGAQFIDGLDSTGTPPV
proteolytic cleavage (MALDI-MS) [1]: cleavage of the amide bond between Lys25 and Gly26 and removal of the leader sequence and the His6-tag

B2: GST-Lpd (protein)
chain: MKIVLQNNEQDCLLACYSMILGYFGRDVAIHELYSGEMIPPDGLSVSYLKNINMKHQVSMHVYKTDKKNSPNKIFYPKMLPVIIQWNDNHFVVVTKIYRKNVTLIDPAIGKVKYNYNDFMKKFSGYIITLSPNSSFTKKKRISEIIFPLK
proteolytic cleavage of the leader (MALDI-TOF MS; sensitivity of indicator strain L. lactis 117) [1]: Both unmodified and modified His-LctA were substrates for GST-Lpd | proteolytic cleavage of the leader (MALDI-TOF MS) (His6-LctA): Both unmodified and modified His-LctA were substrates for GST-Lpd | removal of the leader peptide (LctMutA): the protease domain of LctT can remove the leaser peptide and the His-tag
